These results are taken from patent US20220106580A1.

The target of assay [1] is asialofetuin (ASF) (UniProt P12763). Kind of assay: saturation binding of GFP fluorescence to ASF adsorbed onto plastic, [GFP]=0-10 µM.
The target is the same in assay [2]. Kind of assay: cell-based or functional assay.

Chain of UniProt P12763 (P12763 19-359 limits assumed): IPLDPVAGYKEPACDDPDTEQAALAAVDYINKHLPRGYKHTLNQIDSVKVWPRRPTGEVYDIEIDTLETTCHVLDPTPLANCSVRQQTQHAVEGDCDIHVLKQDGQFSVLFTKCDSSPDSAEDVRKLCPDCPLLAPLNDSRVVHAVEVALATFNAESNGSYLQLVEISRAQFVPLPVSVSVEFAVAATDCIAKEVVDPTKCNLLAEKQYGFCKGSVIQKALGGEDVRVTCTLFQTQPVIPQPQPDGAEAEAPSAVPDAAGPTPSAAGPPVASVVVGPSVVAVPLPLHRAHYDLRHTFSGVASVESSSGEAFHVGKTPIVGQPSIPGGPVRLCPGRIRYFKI

Regarding “GFP-TT-G3 (superfolder green fluorescent protein - TriggerTrimer coiled-coil - human galectin-3; trimeric nanoassembly)”, the concentration approaching saturation in assay [1] worked out at 2 µM.

For “wild-type galectin-3 (WT-G3) (from UniProt P17931 2-250)”, in assay [2], the WT-G3 concentration at which insoluble aggregates with 7 uM ASF are detected at 420 nm is more than 2.5 µM and the absorbance of 10 uM WT-G3 plus 7 uM ASF in PBS was 0.4 absorbance.
